Numbering of substitutions follows the chain as printed. Values belong to the binder of their own block, whether it stands above or below them.
Target: T1, CD3 epsilon homodimer protein (UniProt P07766 23-126)
T1 construct: also called CD3 (CD3 epsilon)
Assay: SPR, CD3 epsilon homodimer on chip, one-arm antibody as analyte;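 further: surface plasmon resonance at 25 °C with CD3 epsilon homodimer amine-coupled to a CM4 sensor chip, antibody injected as analyte, HBS-EP+ as running buffer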

T1 sequence (P07766 23-126): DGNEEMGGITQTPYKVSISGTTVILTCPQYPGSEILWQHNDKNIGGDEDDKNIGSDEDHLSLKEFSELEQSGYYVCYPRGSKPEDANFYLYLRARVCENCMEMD

B1: CE115HA000 K64S (antibody, human IgG1, kappa, L234A L235A, N297A, name in Kabat numbering)
heavy: QVQLVESGGGVVQPGRSLRLSCAASGFTFSNAWMHWVRQAPGKGLEWVAQIKAKSNNYATYYAESVSGRFTISRDDSKNSLYLQMNSLKTEDTAVYYCRYVHYGAYYGVDAWGQGTTVTVSSASTKGPSVFPLAPSSKSTSGGTAALGCLVKDYFPEPVTVSWNSGALTSGVHTFPAVLQSSGLYSLSSVVTVPSSSLGTQTYICNVNHKPSNTKVDKKVEPKSCDKTHTCPPCPAPEAAGGPSVFLFPPKPKDTLMISRTPEVTCVVVDVSHEDPEVKFNWYVDGVEVHNAKTKPREEQYASTYRVVSVLTVLHQDWLNGKEYKCKVSNKALPAPIEKTISKAKGQPREPQVYTLPPSRCELTKNQVSLSCAVKGFYPSDIAVEWESNGQPENNYKTTPPVLDSDGSFFLVSKLTVDKSRWQQGNVFSCSVMHEALHNHYTQKSLSLSPDYKDDDDK
chain: EPKSSDKTHTCPPCPAPELLGGPSVFLFPPKPKDTLMISRTPEVTCVVVDVSHEDPEVKFNWYVDGVEVHNAKTKPREEQYNSTYRVVSVLTVLHQDWLNGKEYKCKVSNKALPAPIEKTISKAKGQPREPQVCTLPPSRDELTKNQVSLWCLVKGFYPSDIAVEWESNGQPENNYKTTPPVLDSDGSFFLYSKLTVDKSRWQQGNVFSCSVMHEALHNRYTQKSLSLSP
light: DIVMTQSPLSLPVTPGEPASISCRSSQSLVHSNRNTYLHWYQQKPGQAPRLLIYKVSNRFSGVPDRFSGSGSGTDFTLKISRVEAEDVGVYYCGQGTQVPYTFGQGTKLEIKRTVAAPSVFIFPPSDEQLKSGTASVVCLLNNFYPREAKVQWKVDNALQSGNSQESVTEQDSKDSTYSLSSTLTLSKADYEKHKVYACEVTHQGLSSPVTKSFNRGEC
notes: one-arm antibody
- KD ratio (KD of CE115HA000/KD of altered form): 0.85

B2: CE115HA000 N31A (antibody, human IgG1, kappa, L234A L235A, N297A, name in Kabat numbering)
heavy: B1 heavy with N31A, S67K
chain: B1 chain
light: B1 light
notes: one-arm antibody
- KD ratio (KD of CE115HA000/KD of altered form): 0.96

B4: CE115HA000 K75R (antibody, human IgG1, kappa, L234A L235A, N297A, name in Kabat numbering)
heavy: B1 heavy with S67K, K78R
chain: B1 chain
light: B1 light
notes: one-arm antibody
- KD ratio (KD of CE115HA000/KD of altered form): 0.88

B5: CE115HA000 N31H (antibody, human IgG1, kappa, L234A L235A, N297A, name in Kabat numbering)
heavy: B1 heavy with N31H, S67K
chain: B1 chain
light: B1 light
notes: one-arm antibody
- KD ratio (KD of CE115HA000/KD of altered form): 0.96

B12: CE115HA000 N31K (antibody, human IgG1, kappa, L234A L235A, N297A, name in Kabat numbering)
heavy: B1 heavy with N31K, S67K
chain: B1 chain
light: B1 light
notes: one-arm antibody
- KD ratio (KD of CE115HA000/KD of altered form): 0.97

B13: CE115HA000 N31D (antibody, human IgG1, kappa, L234A L235A, N297A, name in Kabat numbering)
heavy: B1 heavy with N31D, S67K
chain: B1 chain
light: B1 light
notes: one-arm antibody
- KD ratio (KD of CE115HA000/KD of altered form): 1.14

B15: CE115HA000 N31R (antibody, human IgG1, kappa, L234A L235A, N297A, name in Kabat numbering)
heavy: B1 heavy with N31R, S67K
chain: B1 chain
light: B1 light
notes: one-arm antibody
- KD ratio (KD of CE115HA000/KD of altered form): 0.98

B17: CE115HA000 N31I (antibody, human IgG1, kappa, L234A L235A, N297A, name in Kabat numbering)
heavy: B1 heavy with N31I, S67K
chain: B1 chain
light: B1 light
notes: one-arm antibody
- KD ratio (KD of CE115HA000/KD of altered form): 0.62

B23: CE115HA000 L78I (antibody, human IgG1, kappa, L234A L235A, N297A, name in Kabat numbering)
heavy: B1 heavy with S67K, L81I
chain: B1 chain
light: B1 light
notes: one-arm antibody
- KD ratio (KD of CE115HA000/KD of altered form): 1.08

B25: CE115HA000 N31G (antibody, human IgG1, kappa, L234A L235A, N297A, name in Kabat numbering)
heavy: B1 heavy with N31G, S67K
chain: B1 chain
light: B1 light
notes: one-arm antibody
- KD ratio (KD of CE115HA000/KD of altered form): 1.37

B26: CE115HA000 K75T (antibody, human IgG1, kappa, L234A L235A, N297A, name in Kabat numbering)
heavy: B1 heavy with S67K, K78T
chain: B1 chain
light: B1 light
notes: one-arm antibody
- KD ratio (KD of CE115HA000/KD of altered form): 0.75

B28: CE115HA000 N31W (antibody, human IgG1, kappa, L234A L235A, N297A, name in Kabat numbering)
heavy: B1 heavy with N31W, S67K
chain: B1 chain
light: B1 light
notes: one-arm antibody
- KD ratio (KD of CE115HA000/KD of altered form): 1.07

B30: CE115HA000 N31S (antibody, human IgG1, kappa, L234A L235A, N297A, name in Kabat numbering)
heavy: B1 heavy with N31S, S67K
chain: B1 chain
light: B1 light
notes: one-arm antibody
- KD ratio (KD of CE115HA000/KD of altered form): 0.67

B31: CE115HA000 N31Q (antibody, human IgG1, kappa, L234A L235A, N297A, name in Kabat numbering)
heavy: B1 heavy with N31Q, S67K
chain: B1 chain
light: B1 light
notes: one-arm antibody
- KD ratio (KD of CE115HA000/KD of altered form): 0.94

B32: CE115HA000 N31F (antibody, human IgG1, kappa, L234A L235A, N297A, name in Kabat numbering)
heavy: B1 heavy with N31F, S67K
chain: B1 chain
light: B1 light
notes: one-arm antibody
- KD ratio (KD of CE115HA000/KD of altered form): 1.24

Now from value to binder:

- KD ratio (KD of CE115HA000/KD of altered form): 0.8
B3: CE115HA000 N54Q (antibody, human IgG1, kappa, L234A L235A, N297A, name in Kabat numbering)
heavy: B1 heavy with N57Q, S67K
chain: B1 chain
light: B1 light
notes: one-arm antibody

- KD ratio (KD of CE115HA000/KD of altered form): 0.79
B6: CE115HA000 N53K (antibody, human IgG1, kappa, L234A L235A, N297A, name in Kabat numbering)
heavy: B1 heavy with N56K, S67K
chain: B1 chain
light: B1 light
notes: one-arm antibody

- KD ratio (KD of CE115HA000/KD of altered form): 0.55
B7: CE115HA000 N53A (antibody, human IgG1, kappa, L234A L235A, N297A, name in Kabat numbering)
heavy: B1 heavy with N56A, S67K
chain: B1 chain
light: B1 light
notes: one-arm antibody

- KD ratio (KD of CE115HA000/KD of altered form): 0.95
B8: CE115HA000 N53G (antibody, human IgG1, kappa, L234A L235A, N297A, name in Kabat numbering)
heavy: B1 heavy with N56G, S67K
chain: B1 chain
light: B1 light
notes: one-arm antibody

- KD ratio (KD of CE115HA000/KD of altered form): 0.55
B9: CE115HA000 N53D (antibody, human IgG1, kappa, L234A L235A, N297A, name in Kabat numbering)
heavy: B1 heavy with N56D, S67K
chain: B1 chain
light: B1 light
notes: one-arm antibody

- KD ratio (KD of CE115HA000/KD of altered form): 0.59
B10: CE115HA000 N53S (antibody, human IgG1, kappa, L234A L235A, N297A, name in Kabat numbering)
heavy: B1 heavy with N56S, S67K
chain: B1 chain
light: B1 light
notes: one-arm antibody

- KD ratio (KD of CE115HA000/KD of altered form): 0.82
B11: CE115HA000 N54K (antibody, human IgG1, kappa, L234A L235A, N297A, name in Kabat numbering)
heavy: B1 heavy with N57K, S67K
chain: B1 chain
light: B1 light
notes: one-arm antibody

- KD ratio (KD of CE115HA000/KD of altered form): 0.69
B14: CE115HA000 N53W (antibody, human IgG1, kappa, L234A L235A, N297A, name in Kabat numbering)
heavy: B1 heavy with N56W, S67K
chain: B1 chain
light: B1 light
notes: one-arm antibody

- KD ratio (KD of CE115HA000/KD of altered form): 0.94
B16: CE115HA000 N53Y (antibody, human IgG1, kappa, L234A L235A, N297A, name in Kabat numbering)
heavy: B1 heavy with N56Y, S67K
chain: B1 chain
light: B1 light
notes: one-arm antibody

- KD ratio (KD of CE115HA000/KD of altered form): 1.05
B18: CE115HA000 N53Q (antibody, human IgG1, kappa, L234A L235A, N297A, name in Kabat numbering)
heavy: B1 heavy with N56Q, S67K
chain: B1 chain
light: B1 light
notes: one-arm antibody

- KD ratio (KD of CE115HA000/KD of altered form): 1.1
B19: CE115HA000 N31Y (antibody, human IgG1, kappa, L234A L235A, N297A, name in Kabat numbering)
heavy: B1 heavy with N31Y, S67K
chain: B1 chain
light: B1 light
notes: one-arm antibody

- KD ratio (KD of CE115HA000/KD of altered form): 0.59
B20: CE115HA000 N54D (antibody, human IgG1, kappa, L234A L235A, N297A, name in Kabat numbering)
heavy: B1 heavy with N57D, S67K
chain: B1 chain
light: B1 light
notes: one-arm antibody

- KD ratio (KD of CE115HA000/KD of altered form): 0.58
B21: CE115HA000 N54A (antibody, human IgG1, kappa, L234A L235A, N297A, name in Kabat numbering)
heavy: B1 heavy with N57A, S67K
chain: B1 chain
light: B1 light
notes: one-arm antibody

- KD ratio (KD of CE115HA000/KD of altered form): 0.55
B22: CE115HA000 N53H (antibody, human IgG1, kappa, L234A L235A, N297A, name in Kabat numbering)
heavy: B1 heavy with N56H, S67K
chain: B1 chain
light: B1 light
notes: one-arm antibody

- KD ratio (KD of CE115HA000/KD of altered form): 0.84
B24: CE115HA000 N54G (antibody, human IgG1, kappa, L234A L235A, N297A, name in Kabat numbering)
heavy: B1 heavy with N57G, S67K
chain: B1 chain
light: B1 light
notes: one-arm antibody

- KD ratio (KD of CE115HA000/KD of altered form): 0.57
B27: CE115HA000 N53I (antibody, human IgG1, kappa, L234A L235A, N297A, name in Kabat numbering)
heavy: B1 heavy with N56I, S67K
chain: B1 chain
light: B1 light
notes: one-arm antibody

- KD ratio (KD of CE115HA000/KD of altered form): 0.91
B29: CE115HA000 N54L (antibody, human IgG1, kappa, L234A L235A, N297A, name in Kabat numbering)
heavy: B1 heavy with N57L, S67K
chain: B1 chain
light: B1 light
notes: one-arm antibody

- KD ratio (KD of CE115HA000/KD of altered form): 0.97
B33: CE115HA000 N54F (antibody, human IgG1, kappa, L234A L235A, N297A, name in Kabat numbering)
heavy: B1 heavy with N57F, S67K
chain: B1 chain
light: B1 light
notes: one-arm antibody
